Data taken from patent US20200115460A1 (TEIJIN PHARMA, published 2020).

Columns and labels:
hINSR[L1-L2]/hIGFIR = target: T1, hINSR[L1-L2]/hIGFIR (human); assay: Cell ELISA, 10 nM antibody, fixed P3U1 cells expressing the chimera
T1 construct: Chimeric receptor on transfected P3U1 cells
Procedure: (§1) The gene of hIGFIR[L1-L2]/hINSR as Substitution 1 is shown in SEQ ID NO: 23; the gene of hINSR[L1-L2]/hIGFIR as Substitution 2 is shown in SEQ ID NO: 24; the gene of hINSR[L1]/hIGFIR as Substitution 3 is shown in SEQ ID NO: 25; and the gene of hINSR[L2]/hIGFIR as Substitution 4 is shown in SEQ ID NO: 26. After the lipofection, the P3U1 cells were cultured at least overnight and were added to a 96-well plate (coated with poly-D-lysine) at a concentration of 0.8×10⁵ cells/well and immobilized with 10% buffered formalin (Mildform® 10 NM, Wako), followed by blocking with phosphate buffer containing 3% BSA. The plate was used in ELISA.
(§2) In ELISA, 30 μL of an antibody solution adjusted to 10 nM with 0.1% skimmed milk/3% BSA/PBS was added to each well and was subjected to reaction at room temperature for about 1.5 hours. After washing with a washing liquid twice, 30 μL of an anti-mouse-IgG antibody-HRP conjugate solution adjusted to 5 nM with 0.1% skimmed milk/3% BSA/PBS was added to each well and was subjected to reaction at room temperature for about 1 hour. After washing with a washing liquid twice, 50 μL of a substrate (TMB) was added to each well to start the reaction. After about 20 minutes, 50 μL of 0.5 M sulfuric acid was added to each well to stop the reaction. The absorbances at 450 nm and 550 nm were measured, and the difference between absorbance values at 450 nm and 550 nm was calculated. The avidity was calculated based on the difference between absorbance values at 450 nm and 550 nm for cells (Mock cells, SEQ ID NO: 22) transfected with a vector not containing the gene of each substitution as a standard value 1 (Table 3).

hINSR[L1]/hIGFIR = target: T2, hINSR[L1]/hIGFIR (human); assay: as above
T2 construct: Chimeric receptor on transfected P3U1 cells
Procedure: as §1, §2

[1] = target: T3, recombinant human IGF-I receptor His tag (305-GR-050, R&D SYSTEMS) (human, UniProt P08069 31-932, limits assumed); assay: SPR, Biacore T200, 36 °C, IGF-IR-His captured by anti-His antibody, 1:1 model
T3 construct: Bought protein, captured on an anti-His antibody chip; also called IGF-IR-His; not shown: His tag
Procedure: An anti-His monoclonal antibody was immobilized to a sensor chip CM3 (GE) with an Amine Coupling Kit (BR-1000-50, GE) and a His Capture Kit (28-9950-56, GE). The immobilization conditions were NHS/EDC: 7 minutes, 50 μg/mL anti-His monoclonal antibody: 3 minutes, ethanolamine: 7 minutes, and target: ≥3000 RU. As analytes, the agent was used at predetermined concentrations.
The sensor chip CM3 immobilized with the anti-His monoclonal antibody was set to Biacore T200, the reaction temperature was set to 36° C., and a running buffer (HBS-EP+, BR-1006-69, GE) was fed at a flow rate 30 μL/min. The amount of the binding ligand was set to about 100 RU, and IGF-IR-His (0.5 to 2×10⁻⁸ mol/L) was added to the sensor chip to be captured by the anti-His monoclonal antibody. Ctrl IgG2a (10 nmol/L) was allowed to react for 1 minute, and HBS-EP+ was fed at a flow rate of 30 μL/min for at least 10 minutes. The analyte and HBS-EP+ were added to flow cells (1 and 2) and flow cells (3 and 4), respectively.
The reaction conditions were set to a binding time of 600 seconds and a dissociation time of 600 seconds. After completion of the reaction, washing was performed with regeneration buffer 1 (0.2% SDS), regeneration buffer 2 (100 mmol/L Tris-HCl (pH 8.5), 1 mol/L NaCl, 15 mmol/L MgCl₂), and regeneration buffer 3 (10 mmol/L glycine-HCl (pH 1.5)) for 1 minute each at a flow rate of 30 μL/min.

human insulin receptor = target: T4, human insulin receptor (human, UniProt P06213 28-1382); assay: Cell ELISA, fixed HEK 293T cells expressing the receptor
T4 construct: whole, on cells; Expressed on transfected HEK 293T cells; also called INSR; hINSR
Procedure: The HEK 293T cells after the lipofection were added to a 96-well plate (coated with poly-D-lysine) at a concentration of 0.8×10⁵ cells/well (about 180 μL/well) and were immobilized with 10% buffered formalin (Mildform® 10 NM, Wako), followed by blocking with phosphate buffer containing 3% BSA. The plate was used in ELISA.
In ELISA, antibody solutions (30 μL) adjusted to predetermined concentrations with 0.1% skimmed milk/3% BSA/PBS were added to respective wells and were subjected to reaction at room temperature for about 1 hour. After washing with a washing liquid (tris buffer containing Tween) twice, anti-mouse-IgG antibody-ALP conjugate solutions (30 μL) adjusted to predetermined concentrations with 0.1% skimmed milk/3% BSA/PBS were added to respective wells and were subjected to reaction at room temperature for about 1 hour. After washing with a washing liquid twice, 100 μL of a substrate (PNPP) was added to each well to start the reaction.

[2] = target: T5, Substitution 3 of the CR domain (human IGF-I receptor G315S/S316T, FLAG tag) (human, UniProt P08069 31-1367); assay: Cell ELISA on HEK 293T cells expressing the substitution
T5 construct: Expressed on transfected HEK 293T cells
Procedure: HEK 293T cells were seeded in a 10-cm dish coated with poly-D-lysine at 9×10⁶ cells/well. On the next day, each plasmid DNA was transfected into the cells by lipofection. On the following day, the HEK 293T cells were detached with 0.25% trypsin/EDTA and were suspended in a broth. The HEK 293T cells were added to a 96-well plate (coated with poly-D-lysine) at a concentration of 0.8×10⁵ cells/well and were incubated at 37° C. under conditions of 5% CO₂ overnight. The medium was removed from the 96-well plate, and the cells were immobilized with a 10% buffered formalin (Mildform® 10 NM, Wako). The 10% buffered formalin was replaced with a blocking buffer (3% BSA/PBS/sodium azide), and the plate was used in ELISA.
After washing with a washing liquid twice, anti-mouse-IgG antibody-HRP conjugate solutions (50 μL) adjusted to predetermined concentrations with 0.1% skimmed milk/3% BSA/PBS were added to respective wells and were subjected to reaction at room temperature for about 1 hour. After washing with a washing liquid twice, 100 μL of a substrate (TMB) was added to each well to start the reaction. After about 30 minutes, 100 μL of 0.5 M sulfuric acid was added to each well to stop the reaction, and the absorbances at 450 nm was measured. The value of the absorbance at 450 nm was evaluated as the avidity.

B1: IGF11-16 (antibody, mouse IgG1, kappa, V domains shown)
VH: QIQLQQPGAELVKPGASVKLSCKAPGYTFTSYWMHWVKQRPGQGLEWIGETNPSNSVTNYNEKFKSKATLTVDKSSSTAYMQLSSLTSEDSAVYYCTIGRGRGFAYWGQGTLVTVSA
VL: DIQMNQSPSSLSASLGDTITITCRASQNINFWLSWCQQKPGNIPKLLIYKASNLHTGVPSRFSGSGSGTDFTLTISSLQPEDIATYYCLQGQSYPYTFGGGTKLEIKR
notes: no cleavage site is stated; also called IGF-I receptor agonist antibody; IGF11-16 antibody
Avidity (absorbance difference 450-550 nm, Mock cells = 1) (hINSR[L1-L2]/hIGFIR): 1.5 fold of Mock cells
Avidity (absorbance difference 450-550 nm, Mock cells = 1) (hINSR[L1]/hIGFIR): 5.7 fold of Mock cells
Kd [1]: < 0.01 nM
koff [1]: < 1e-05 s⁻¹
kon [1]: 1.05e+06 M⁻¹ s⁻¹
avidity (absorbance difference 405-550 nm, Mock cells = 1) at 0.5 nM (human insulin receptor): 1.1 fold of Mock cells
avidity (absorbance difference 405-550 nm, Mock cells = 1) at 5 nM (human insulin receptor): 1.4 fold of Mock cells
binding result [2]: no binding (tested: 1 nM)
